Laboratory results: patent US20250170182A1

Key:
[1] = biological target: human wild type FLT3 (human) (UniProt P36888); assay: cell-based or functional assay
[2] = biological target: human wild type CD123 (human) (UniProt P26951); assay: cell-based or functional assay
Sequence of UniProt P26951 (P26951 19-378 limits assumed): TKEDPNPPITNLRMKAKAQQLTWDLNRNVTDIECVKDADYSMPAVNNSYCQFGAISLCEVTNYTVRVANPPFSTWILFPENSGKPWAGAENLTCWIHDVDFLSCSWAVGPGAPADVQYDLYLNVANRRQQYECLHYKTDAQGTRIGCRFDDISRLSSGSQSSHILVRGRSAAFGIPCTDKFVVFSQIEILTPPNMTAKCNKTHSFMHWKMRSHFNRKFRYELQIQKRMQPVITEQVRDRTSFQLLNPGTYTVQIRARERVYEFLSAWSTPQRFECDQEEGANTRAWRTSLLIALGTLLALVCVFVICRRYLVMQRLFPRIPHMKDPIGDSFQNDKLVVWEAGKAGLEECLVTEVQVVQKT

**Q.** How did the surviving K562 target cells at E:T=10 relative to E:T=0 [1] turn out when “4G8-CAR (IgG4 hinge, CD28 TM, CD28z, CD3z) targeting FLT3 domain 4” was run?
**A.** < 2%

**Q.** For “CSL362-CAR (CD8a hinge, CD28 TM, CD28z, CD3z) targeting CD123 N-terminal domain”, which surviving K562 target cells at E:T=10 relative to E:T=0 [2] is on record?
**A.** < 2%
